Source: publication PMC3898874
Several values for one entry are separate records, joined by “and”; a condition that tells them apart may be missing. Equal values may be shown once.

Molecular target: T1, FLAG-tagged STAT1 (signal transducer and activator of transcription 1), P42224
T1 chain: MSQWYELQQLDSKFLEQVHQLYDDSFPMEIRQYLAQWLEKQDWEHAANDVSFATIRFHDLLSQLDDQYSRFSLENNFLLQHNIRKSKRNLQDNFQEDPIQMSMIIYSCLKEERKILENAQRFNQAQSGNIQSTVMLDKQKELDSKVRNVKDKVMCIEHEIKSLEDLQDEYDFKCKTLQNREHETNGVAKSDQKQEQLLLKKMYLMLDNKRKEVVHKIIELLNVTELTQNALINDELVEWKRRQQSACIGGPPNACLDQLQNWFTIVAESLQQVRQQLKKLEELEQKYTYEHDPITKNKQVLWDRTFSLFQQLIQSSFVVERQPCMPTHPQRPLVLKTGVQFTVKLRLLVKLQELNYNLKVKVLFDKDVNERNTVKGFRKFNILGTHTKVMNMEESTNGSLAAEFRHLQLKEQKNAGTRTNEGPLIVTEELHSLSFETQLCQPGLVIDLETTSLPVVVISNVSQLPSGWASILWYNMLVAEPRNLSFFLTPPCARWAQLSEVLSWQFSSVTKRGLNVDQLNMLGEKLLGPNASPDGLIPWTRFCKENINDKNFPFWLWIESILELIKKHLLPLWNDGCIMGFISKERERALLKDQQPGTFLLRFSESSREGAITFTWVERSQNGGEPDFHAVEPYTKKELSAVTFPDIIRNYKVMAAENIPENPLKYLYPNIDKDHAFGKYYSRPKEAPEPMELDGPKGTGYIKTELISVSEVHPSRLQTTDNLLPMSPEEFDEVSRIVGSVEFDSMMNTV
Test: co-IP; anti-FLAG M2 immunoprecipitation (protein A/G PLUS agarose, 4°C) from soluble whole-cell extracts (500 μg protein) of co-transfected HEK293T cells, untreated or treated 1 h with 50 U/ml IFNγ; extraction and wash buffer with 280 mM NaCl, 0.5% NP-40, 50 mM Tris/HCl pH 7.4; quantitative blots with anti-GFP and anti-β-arrestin1; control IP without FLAG-tagged STAT1
Details: remark: other sources report otherwise

fold stronger co-precipitation with FLAG-tagged STAT1 than β-arrestin1-GFP (signals normalised to inputs): 3 fold and 6 fold
B1: FLAG-tagged STAT1 (signal transducer and activator of transcription 1), P42224 1-750 (natural protein)
chain: MSQWYELQQLDSKFLEQVHQLYDDSFPMEIRQYLAQWLEKQDWEHAANDVSFATIRFHDLLSQLDDQYSRFSLENNFLLQHNIRKSKRNLQDNFQEDPIQMSMIIYSCLKEERKILENAQRFNQAQSGNIQSTVMLDKQKELDSKVRNVKDKVMCIEHEIKSLEDLQDEYDFKCKTLQNREHETNGVAKSDQKQEQLLLKKMYLMLDNKRKEVVHKIIELLNVTELTQNALINDELVEWKRRQQSACIGGPPNACLDQLQNWFTIVAESLQQVRQQLKKLEELEQKYTYEHDPITKNKQVLWDRTFSLFQQLIQSSFVVERQPCMPTHPQRPLVLKTGVQFTVKLRLLVKLQELNYNLKVKVLFDKDVNERNTVKGFRKFNILGTHTKVMNMEESTNGSLAAEFRHLQLKEQKNAGTRTNEGPLIVTEELHSLSFETQLCQPGLVIDLETTSLPVVVISNVSQLPSGWASILWYNMLVAEPRNLSFFLTPPCARWAQLSEVLSWQFSSVTKRGLNVDQLNMLGEKLLGPNASPDGLIPWTRFCKENINDKNFPFWLWIESILELIKKHLLPLWNDGCIMGFISKERERALLKDQQPGTFLLRFSESSREGAITFTWVERSQNGGEPDFHAVEPYTKKELSAVTFPDIIRNYKVMAAENIPENPLKYLYPNIDKDHAFGKYYSRPKEAPEPMELDGPKGTGYIKTELISVSEVHPSRLQTTDNLLPMSPEEFDEVSRIVGSVEFDSMMNTV
